Reference: PMC2923621, “Gliadin Peptide P31-43 Localises to Endocytic Vesicles and Interferes with Their Maturation” (PLoS ONE, 2010)

How the values were obtained:
Hrs = target: T1, Hrs (Homo sapiens, UniProt O14964); test: Subcellular fractionation and immunoblotting of endogenous Hrs; assay type: cell-based; conditions: CaCo-2 cells, western blot, three independent experiments
T1 construct: to quantify the amount of endogenous Hrs present in each compartment; endogenous in cells; host or cells: CaCo-2
T1 sequence (O14964 whole entry): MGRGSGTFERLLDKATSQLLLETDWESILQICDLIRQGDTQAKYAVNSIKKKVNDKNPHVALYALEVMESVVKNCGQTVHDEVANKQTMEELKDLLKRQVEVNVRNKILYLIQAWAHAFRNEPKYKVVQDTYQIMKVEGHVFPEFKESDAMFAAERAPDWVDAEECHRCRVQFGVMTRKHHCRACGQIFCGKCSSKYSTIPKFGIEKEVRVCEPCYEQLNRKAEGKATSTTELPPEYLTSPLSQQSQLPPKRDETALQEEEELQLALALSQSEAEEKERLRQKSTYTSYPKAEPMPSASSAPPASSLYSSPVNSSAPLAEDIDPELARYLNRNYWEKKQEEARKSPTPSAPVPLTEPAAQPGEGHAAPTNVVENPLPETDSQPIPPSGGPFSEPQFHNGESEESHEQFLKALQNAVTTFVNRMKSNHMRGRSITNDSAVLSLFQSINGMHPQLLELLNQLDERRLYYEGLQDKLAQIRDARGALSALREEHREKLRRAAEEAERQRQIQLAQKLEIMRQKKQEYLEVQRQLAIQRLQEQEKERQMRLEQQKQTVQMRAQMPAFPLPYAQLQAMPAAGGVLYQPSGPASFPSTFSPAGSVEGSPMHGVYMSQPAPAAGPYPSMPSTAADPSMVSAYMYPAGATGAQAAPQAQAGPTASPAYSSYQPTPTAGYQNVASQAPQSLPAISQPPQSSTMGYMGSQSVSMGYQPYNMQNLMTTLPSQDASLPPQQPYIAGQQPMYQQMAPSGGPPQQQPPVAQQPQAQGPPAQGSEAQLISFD
Protocol: Near-confluent Caco2 cells in a 90-mm dish were incubated with EGF and P31-43 at various times, after homogenization (10 mM Tris-HCl [pH 7.4], 1 mM EDTA, and the mixture of phosphatase and protease inhibitors) the nuclear fraction was eliminated by centrifugation. The soluble cytosolic and the membrane fraction were obtained by ultracentrifugation. Electrophoresis and immunoblotting were performed as described elsewhere. Briefly the proteins of the soluble cytosolic and the membrane fractions were separated by SDS-PAGE and incubated with anti-Hrs mouse monoclonal antibody (Alexis, Vinci-Biochem, Florence, Italy) or anti-EGFR rabbit polyclonal antibody (Cell Signaling Celbio, Milan Italy) or anti-tubulin mouse monoclonal antibody (SIGMA-Aldrich, Milan, Italy). Densitometric analysis was performed as before.

CaCo-2 cells = test: BrdU incorporation with or without Hrs-EGFP transfection; assay type: cell-based; conditions: serum starved 0.1% FCS, mean ± SD of three independent experiments
Protocol: We used the lipofectamine kit (Invitrogen, San Giuliano Milanese, Italy) according to the manufacturer's instructions to transfect all plasmids (Rab5-EGFP, Rab7-EGFP, Hrs-EGFP and Hrs-Ha). Briefly, CaCo-2 cells seeded on coverslips for 48 h were transfected with the plasmids for 16 h. The next day, transfected cells were pulsed and chased as described below or stained for Bromodeoxyuridine (BrdU) with a monoclonal antibody (Sigma-Aldrich, Milan, Italy) and total nuclei were identified by Hoechst staining. BrdU incorporation was performed as described elsewhere, briefly, CaCo-2 cells seeded on coverslips were transfected with Hrs-EGFP and serum starved in DMEM 0.1% foetal calf serum, antibiotics and glutamine for 30–48 h followed by 24 h treatment with gliadin peptides and/or growth factors. BrdU ([…], Boehringer) was added for one hour before fixing the samples. The cells fixed with paraformaldehyde and permeabilised with triton, were stained for BrdU as described and observed at the miscroscope (Axiophot microscope, Carl Zeiss MicroImaging, Inc.). Greater than 100 HRS-EGFP positive cells in several fields were evaluated for BrdU incorporation in each sample. The number of HRS-EGFP/BrdU positive cells was expressed as a proportion of the total Hoechst positive nuclei.

EGF: growth factor used at 100 nanograms/ml as positive control
Amount of Hrs in the membrane fraction (Hrs; normalised to EGFR): did not affect Hrs concentration in either compartment | Amount of Hrs in the cytosolic fraction (Hrs; normalised to tubulin): did not affect Hrs concentration in either compartment | BrdU incorporation (BrdU incorporating cells as percent of total cells) (CaCo-2 cells; CaCo-2 cells not expressing Hrs, 24 h treatment (peptides 70 micrograms/ml, EGF 100 nanograms/ml)): 68.99%±7 | BrdU incorporation (BrdU incorporating cells as percent of total cells) (CaCo-2 cells; Hrs-EGFP-transfected (Hrs-expressing) CaCo-2 cells, 24 h treatment): 66.25%±9.53%
